According to patent US8124087B2, “Methods of controlling bone loss by inhibiting DKK1” (Board of Trustees of the University of Arkansas, priority 2002, dated 2012):

Tests used:
[1] = tested on: multiple myeloma plasma cells; experiment: Gene expression profiling of plasma cells before and after 48 hour in vivo drug treatment; set-up: species or system human; conditions: 48 hour in vivo treatment of patients
Description: Following Ficoll-Hypaque gradient centrifugation, plasma cells obtained from the bone marrow were isolated from the mononuclear cell fraction by immunomagnetic bead selection using a monoclonal mouse anti-human CD138 antibody (Miltenyi-Biotec, Auburn, Calif.). More than 90 percent of the cells used for gene expression profiling were plasma cells, as shown by two-color flow cytometry using CD138^+/CD45^− and CD38^+/ CD45^− markers, the presence of cytoplasmic immunoglobulin light chains by immunocytochemistry, and morphology by Wright-Giemsa staining. Total RNA was isolated with RNeasy Mini Kit (Qiagen, Valencia, Calif.). Preparation of labeled cRNA and hybridization to U95Av2 microarrays containing approximately 10,000 genes (Affymetrix, Santa Clara, Calif.) was performed as previously described (Zhan et al., 2002; Zhan et al., 2003). RNA amplification was not required.
To see if multiple myeloma plasma cells also upregulate the genes in response to drugs used to treat this disease, gene expression profiling of multiple myeloma plasma cells was performed before and after 48 hour in vivo treatment with thalidomide (FIG. 33), ImiD (FIG. 34), PS-341 (FIG. 32), or dexamethasone (FIG. 35). […] In support of this notion, […] and FRZB were expressed at low to undetectable levels in 30 HMCL and several cases of extramedullary disease (FIG. 15).

Saos-2 cells [2] = experiment: GST-E-cadherin binding assay / immunoblot of uncomplexed b-catenin; assay type: cell-based, human
Description: (§1) Cells were incubated in MEM, Wnt3a CM, control CM, or with recombinant Wnt3a for indicated times. For inhibition studies, cells were pretreated with purified recombinant Dkk1 at indicated concentrations or Dkk1 CM, Dkk2 CM, or bone marrow plasma with low or high concentrations of Dkk1 protein for one hour. Following treatment, cells were lysed as described (Qiang et al., 2002). Cell lysates were separated by SDS-PAGE and transferred to Immobilon polyvinylidene difluoride membranes (Millipore, Bedford, Mass.). Immunoblotting was performed using the indicated antibodies.
(§2) The GST-E-cadherin binding assay was performed as described (Bafico et al., 1998). Briefly, the beta-catenin binding site of E-cadherin as a GST-fusion protein was purified using GST beads. GST-E-cadherin was used to precipitate uncomplexed b-catenin present in 500 ng of cell lysate. Precipitated b-catenin was detected by immunoblotting using a b-catenin monoclonal antibody. Non-phosphorylated b-catenin was detected with a monoclonal antibody specific for b-catenin dephosphorylated at residues of 27-37 (Alexis, San Diego, Calif.).
The GST-E-cadherin binding assay was performed as described (Bafico et al., 1998). […] Precipitated beta-catenin was detected by immunoblotting analysis using a b-catenin monoclonal antibody (Qiang et al., 2005).

C2C12 cells [3] = experiment: OPG mRNA (qPCR) and protein (ELISA) in osteoblast cells; assay type: cell-based, mouse
Description: (§3) C2C12 cells were cultured in 6-well plates in DMEM with 10% FBS and maintained at subconfluence. MM cells (5×10^5/ml) were seeded on the C2C12 in the presence or absence of Wnt3a-CM or Cont-CM for indicated times. For coculture with primary cells, CD138 positive cells were cultured on of the C2C12 monolayer […] in the presence or absence of rWnt3a with and without anti-DKK1 antibody (R&D System) for 48 hours. Total RNA was isolated using TRIZOL reagent (Invitrogen). Supernatants were harvested for protein analysis.
(§4) Microtiter plates were coated with 50 μl of anti-DKK1 antibody (R&D Systems, Minneapolis, Minn.) according to manufacturer recommendations. Bone marrow serum (1:50) in dilution buffer was added and incubated overnight at 4° C. Plates were washed and incubated with biotinylated goat anti-human DKK1 IgG (R&D Systems, Minneapolis, Minn.) followed by streptavidin-horseradish peroxidase (Vector Laboratories), according to manufacturer recommendations. The concentrations of OPG and RANKL proteins in cultured supernatant were measured using the kits from according to manufacturer recommendations (R&D Systems, Minneapolis, Minn.).
(§5) One microgram of total RNA was reverse transcribed into total cDNA. Quantitative PCR (qPCR) was performed using an ABI Prism 7000 sequence detection system (Applied Biosystems, Foster City, Calif.). The reaction mixture contained 1 ml of cDNA, dedicated buffers with specific primers and probes (5′-labeled by 6-carboxy-fluorescein and 3′-labeled by 1-carboxy-teteramethyrhdamine), and DNA polymerase in a total 20 ml volume. […] Each cDNA sample was analyzed in triplicate in parallel with GAPDH as a control. Changes in mRNA concentration were determined by subtracting the CT (threshold cycle) of target gene from the CT of GAPDH (Δ=CT gene−CT GAPDH). The mean of Δ control was subtracted from the ΔSiLRP5/6 reaction (mean Δ control−ASiLRP5/6=e) The difference was calculated as 2^e by the ^2-ΔΔCT (Livak and Schmittgen, 2001).

C2C12 cells [4] = experiment: Osteoblast differentiation assay (alkaline phosphatase), 5 days; assay type: cell-based, mouse; conditions: 50 ng/ml BMP-2 + 50 ng/ml recombinant human DKK1, 5 days
Description: C2C12 mesenchymal precursor cells (American Type Tissue Culture, Reston, Va.) were cultured in DMEM (Invitrogen, Carlsbad, Calif.) supplemented with 10 percent heat-inactivated fetal calf serum. Alkaline phosphatase activity in C2C12 cells was measured as described (Gallea, et al., 2001; Spinella-Jaegle, et al., 2001). Cell lysates were analyzed for protein content using the micro-BCA assay kit (Pierce, Rockford, Ill.).

C2C12 cells [5] = experiment: RANKL mRNA (qPCR) in osteoblast cells; assay type: cell-based, mouse; conditions: 48 hours
Description: as §3, §5

C2C12 cells [6] = experiment: Alkaline phosphatase (ALP) assay, BMP-2-induced differentiation; assay type: cell-based, mouse; conditions: 72 hrs
Description: ALP activity was measured using ALP kit (Diagnostic Chemical Limited, Exton, Pa.) according to manufacturer instructions. Absorbance The of samples was determined with a Spectra Max340 Microplate Spectrophotometer (Molecular Devices, Sunnyvale, Calif.) at 402 nm. Cell lysates were analyzed for protein content with using the micro-BCA assay kit (Pierce, Rockford, Ill.).
Chemical synthesis of siRNA specific to LRP5/6, GFP, and control siRNA were purchased from Qiagen (Valencia, Calif.). The siRNA were transiently transfected into C2C12 using Lipofectamine according to manufacturer instructions (Invitrogen). RNA was isolated after 24, 48 or 72 hours then subjected to RT-PCR or qPCR for determination of efficacy of target gene silencing.

C2C12 cells [7] = experiment: TOPflash LEF/TCF luciferase reporter gene assay; assay type: cell-based; conditions: mouse pre-osteoblasts
Description: Cells plated at 5×10^4 per well in a 12-well plate were transiently co-transfected with […] of either TOPflash, FOPflash (Korinek et al., 1997), or Cbfa-1-luc (kindly provided by Dr. Ying Zhang, NCI, NIH) and 50 ng of pSV-b-galactosidase vector to normalize for transfection efficiency using Lipofectamine according to manufacturer instructions (Invitrogen). Following transfection, cells were exposed to Wnt3a CM or control CM for 24 hr prior to luciferase assay. Luciferase activity was measured as previously described (Qiang et al., 2003).

C2C12 cells [8] = experiment: GST-E-cadherin binding assay / immunoblot of uncomplexed b-catenin; assay type: cell-based, mouse
hFOB 1.19 cells = experiment: as above; assay type: cell-based, human; conditions: lowest concentration tested (5 ng/ml)
Description: as §1, §2

MG63 cells = experiment: OPG mRNA (qPCR) in osteoblast cells; assay type: cell-based, human; conditions: data not shown
Description: One microgram of total RNA was reverse transcribed into total cDNA. Quantitative PCR (qPCR) was performed using an ABI Prism 7000 sequence detection system (Applied Biosystems, Foster City, Calif.). The reaction mixture contained […], dedicated buffers with specific primers and probes (5′-labeled by 6-carboxy-fluorescein and 3′-labeled by 1-carboxy-teteramethyrhdamine), and DNA polymerase in a total […]. Following 2 min incubation at 50° C. and 10 min incubation at 95° C. for denaturing, the reaction was subjected to 40-cycle amplification at 95° C. for 15 s to denature and at 60° C. for 1 min for annealing/extension. Each cDNA sample was analyzed in triplicate in parallel with GAPDH as a control. Changes in mRNA concentration were determined by subtracting the CT (threshold cycle) of target gene from the CT of GAPDH (Δ=CT gene−CT GAPDH). The mean of Δ control was subtracted from the ΔSiLRP5/6 reaction (mean Δ control−ASiLRP5/6=e) The difference was calculated as 2^e by the ^2-ΔΔCT (Livak and Schmittgen, 2001).

Saos-2 cells [9] = experiment: OPG mRNA (qPCR) and protein (ELISA) in osteoblast cells; assay type: cell-based, human
Description: as §4
as §5, with “Calif.).” for “Calif.). The reaction mixture contained 1 ml of cDNA, dedicated buffers with specific primers and probes (5′-labeled by 6-carboxy-fluorescein and 3′-labeled by 1-carboxy-teteramethyrhdamine), and DNA polymerase in a total 20 ml volume.”, “2001). […]” for “2001).”

[10] = dose- and time-dependent, maximum reached

## O=C1CCC(N2C(=O)c3ccccc3C2=O)C(=O)N1 (stereo not shown) [thalidomide]
[1]
  DKK-1 and FRZB expression after drug treatment: massively upregulated in many cases

## CC(C)C[C@H](NC(=O)[C@H](Cc1ccccc1)NC(=O)c1cnccn1)B(O)O [PS-341]
[1]
  DKK-1 and FRZB expression after drug treatment: massively upregulated in many cases

B1: recombinant human DKK1: recombinant Dickkopf-1 protein, soluble inhibitor of Wnt signaling (protein)
chain: TLNSVLNSNAIKNLPPPLGGAAGHPGSAVSAAPGILYPGGNKYQTIDNYQPYPCAEDEECGTDEYCASPTRGGDAGVQICLACRKRRKRCMRHAMCCPGNYCKNGICVSSDQNHFRGEIEETITESFGNDHSTLDGYSRRTTLSSKMYHTKGQEGSVCLRSSDCASGLCCARHFWSKICKPVLKEGQVCTKHRRKGSHGLEIFQRCYCGEGLSCRIQKDHHQASNSSRLHTCQRH
Saos-2 cells [2]; lowest concentration tested (5 ng/ml)
  inhibition of Wnt3a-increased non-phosphorylated b-catenin: pronounced inhibition
Saos-2 cells [2]; recombinant DKK1 before Wnt3a
  b-catenin level (pull-down assay): reduced
C2C12 cells [3]; 100 ng/ml of DKK1 in culture media
  Wnt3a-induced increase in OPG mRNA in presence of DKK1: significantly inhibited
C2C12 cells [4]
  alkaline phosphatase production with BMP-2 plus DKK1: not produced
C2C12 cells [5]; 100 ng/ml DKK1 pretreatment
  RANKL mRNA decreased by Wnt3a, after DKK1 pretreatment: restored
C2C12 cells [6]; 100 ng/ml Dkk1, presence or absence of Wnt3a
  BMP-2-induced ALP activity after Dkk1 pretreatment: significantly inhibited ALP activity
C2C12 cells [7]
  Wnt3a-induced TCF/LEF transcriptional activity in presence of Dkk1: completely attenuates
C2C12 cells [8]; pretreatment before Wnt3a
  concentration of maximal inhibition of Wnt3a-increased non-phosphorylated b-catenin: 50 ng/mL
C2C12 cells [8]; recombinant DKK1 before Wnt3a
  b-catenin level (pull-down assay): reduced
hFOB 1.19 cells
  inhibition of Wnt3a-increased non-phosphorylated b-catenin: pronounced inhibition

B2: Wnt3a: recombinant Wnt3a (R&D Systems), canonical Wnt ligand (protein, UniProt P56704 19-352, looked up)
Protein Wnt-3a: SYPIWWSLAVGPQYSSLGSQPILCASIPGLVPKQLRFCRNYVEIMPSVAEGIKIGIQECQHQFRGRRWNCTTVHDSLAIFGPVLDKATRESAFVHAIASAGVAFAVTRSCAEGTAAICGCSSRHQGSPGKGWKWGGCSEDIEFGGMVSREFADARENRPDARSAMNRHNNEAGRQAIASHMHLKCKCHGLSGSCEVKTCWWSQPDFRAIGDFLKDKYDSASEMVVEKHRESRGWVETLRPRYTYFKVPTERDLVYYEASPNFCEPNPETGSFGTRDRTCNVSSHGIDGCDLLCCGRGHNARAERRREKCRCVFHWCCYVSCQECTRVYDVHTCK
MG63 cells
  increase of OPG mRNA: 1.5 fold
Saos-2 cells [9]
  increase of OPG protein relative to controls (ELISA of supernatants): 4 fold
Saos-2 cells [9]; [10]
  increase of OPG mRNA: 2 fold
C2C12 cells [3]
  increase of OPG protein relative to controls (ELISA of supernatants): 2000 fold
C2C12 cells [3]; [10]
  increase of OPG mRNA: 40 fold
C2C12 cells [5]
  RANKL mRNA after Wnt3a: significant decrease in RANKL mRNA
C2C12 cells [6]; DMEM with 2% horse serum
  ALP activity, factor alone: no effect
